Paper PMC9482650, “Quantitative fragmentomics allow affinity mapping of interactomes” (Nature Communications, 2022)

B1: CIB2, O75838 (peptide)
chain: DFLSTFHIRI
B2: GRIA2, P42262 (peptide)
chain: NVYGIESVKI
B3: SLC1A1, P43005 (peptide)
chain: TISFTQTSQF

Target: T1, ARHGEF11, O15085
T1 sequence (O15085 42-136, limits assumed, looked up): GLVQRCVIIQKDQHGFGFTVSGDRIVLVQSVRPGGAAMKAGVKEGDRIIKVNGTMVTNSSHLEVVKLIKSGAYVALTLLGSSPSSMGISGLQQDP
Test: holdup assay
Design: key: below the threshold = too weak to quantify, mostly under pKd 3.1 to 4
Details: plain residues with an end cap or a label only (N-terminal biotin on a linker: ado-ado)

Binder | pKd
B1 | 3.64
B2 | 3.58
B3 | 3.79

Target: CASK, O14936
Sequence (O14936 487-570): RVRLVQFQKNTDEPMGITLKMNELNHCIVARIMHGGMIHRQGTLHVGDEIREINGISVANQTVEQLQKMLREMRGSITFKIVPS
Test: holdup assay
Design: key: below the threshold = too weak to quantify, mostly under pKd 3.1 to 4
Details: plain residues with an end cap or a label only (N-terminal biotin on a linker: ado-ado)

Binder | pKd
B1 | below the threshold
B2 | below the threshold
B3 | below the threshold

Target: T2, DFNB31_1, Q9P202
T2 sequence (Q9P202 135-233, limits assumed, looked up): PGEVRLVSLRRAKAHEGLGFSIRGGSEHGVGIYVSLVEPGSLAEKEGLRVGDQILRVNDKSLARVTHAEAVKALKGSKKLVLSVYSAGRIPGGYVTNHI
Test: holdup assay
Design: key: below the threshold = too weak to quantify, mostly under pKd 3.1 to 4
Details: plain residues with an end cap or a label only (N-terminal biotin on a linker: ado-ado)

Binder | pKd
B1 | 3.55
B2 | below the threshold
B3 | below the threshold

Target: T3, DFNB31_2, Q9P202
T3 sequence (Q9P202 274-371, limits assumed, looked up): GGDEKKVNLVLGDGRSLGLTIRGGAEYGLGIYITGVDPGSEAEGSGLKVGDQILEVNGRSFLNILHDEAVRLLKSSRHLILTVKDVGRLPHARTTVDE
Test: holdup assay
Design: key: below the threshold = too weak to quantify, mostly under pKd 3.1 to 4
Details: plain residues with an end cap or a label only (N-terminal biotin on a linker: ado-ado)

Binder | pKd
B1 | below the threshold
B2 | below the threshold
B3 | below the threshold

Target: DLG1_2, Q12959
Sequence (Q12959 314-412): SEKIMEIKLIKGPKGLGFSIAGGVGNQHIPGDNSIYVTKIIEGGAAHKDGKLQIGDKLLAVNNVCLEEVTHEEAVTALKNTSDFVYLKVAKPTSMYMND
Test: holdup assay
Design: key: below the threshold = too weak to quantify, mostly under pKd 3.1 to 4
Details: plain residues with an end cap or a label only (N-terminal biotin on a linker: ado-ado)

Binder | pKd
B1 | below the threshold
B2 | 3.96
B3 | 3.83

Target: DLG5_1, Q8TDM6
Sequence (Q8TDM6 617-713): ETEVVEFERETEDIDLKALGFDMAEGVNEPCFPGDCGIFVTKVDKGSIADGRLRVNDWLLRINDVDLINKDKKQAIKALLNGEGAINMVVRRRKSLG
Test: holdup assay
Design: key: below the threshold = too weak to quantify, mostly under pKd 3.1 to 4
Details: plain residues with an end cap or a label only (N-terminal biotin on a linker: ado-ado)

Binder | pKd
B1 | below the threshold
B2 | 3.59
B3 | below the threshold

Target: FRMPD2_1, Q68DX3
Sequence (Q68DX3 770-861): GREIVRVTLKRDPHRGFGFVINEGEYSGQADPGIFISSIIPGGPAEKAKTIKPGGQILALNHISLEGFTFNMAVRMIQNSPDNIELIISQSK
Test: holdup assay
Design: key: below the threshold = too weak to quantify, mostly under pKd 3.1 to 4
Details: plain residues with an end cap or a label only (N-terminal biotin on a linker: ado-ado)

Binder | pKd
B1 | below the threshold
B2 | 3.56
B3 | below the threshold

Target: FRMPD3, Q5JV73
Sequence (Q5JV73 12-100): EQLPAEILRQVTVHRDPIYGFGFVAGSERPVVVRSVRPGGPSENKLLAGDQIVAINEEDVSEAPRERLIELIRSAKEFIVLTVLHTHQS
Test: holdup assay
Design: key: below the threshold = too weak to quantify, mostly under pKd 3.1 to 4
Details: plain residues with an end cap or a label only (N-terminal biotin on a linker: ado-ado)

Binder | pKd
B1 | below the threshold
B2 | below the threshold
B3 | below the threshold

Target: GIPC2, Q8TF65
Sequence (Q8TF65 112-203): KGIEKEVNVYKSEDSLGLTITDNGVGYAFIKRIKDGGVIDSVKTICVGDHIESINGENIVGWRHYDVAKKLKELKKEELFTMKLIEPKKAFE
Test: holdup assay
Design: key: below the threshold = too weak to quantify, mostly under pKd 3.1 to 4
Details: plain residues with an end cap or a label only (N-terminal biotin on a linker: ado-ado)

Binder | pKd
B1 | below the threshold
B2 | below the threshold
B3 | below the threshold

Target: T4, GRIP1_3, Q9Y3R0
T4 sequence (Q9Y3R0 247-346, limits assumed, looked up): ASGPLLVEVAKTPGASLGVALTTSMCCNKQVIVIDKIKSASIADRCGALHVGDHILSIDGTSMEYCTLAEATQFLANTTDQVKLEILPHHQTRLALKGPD
Test: holdup assay
Design: key: below the threshold = too weak to quantify, mostly under pKd 3.1 to 4
Details: plain residues with an end cap or a label only (N-terminal biotin on a linker: ado-ado)

Binder | pKd
B1 | below the threshold
B2 | below the threshold
B3 | below the threshold

Target: GRIP2_7, Q9C0E4
Sequence (Q9C0E4 934-1023): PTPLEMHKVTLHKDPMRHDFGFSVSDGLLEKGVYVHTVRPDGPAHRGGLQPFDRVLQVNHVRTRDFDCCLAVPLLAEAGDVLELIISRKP
Test: holdup assay
Design: key: below the threshold = too weak to quantify, mostly under pKd 3.1 to 4
Details: plain residues with an end cap or a label only (N-terminal biotin on a linker: ado-ado)

Binder | pKd
B1 | 4.04
B2 | below the threshold
B3 | below the threshold

Target: Inadl_5, Q8NI35
Sequence (Q8NI35 673-780): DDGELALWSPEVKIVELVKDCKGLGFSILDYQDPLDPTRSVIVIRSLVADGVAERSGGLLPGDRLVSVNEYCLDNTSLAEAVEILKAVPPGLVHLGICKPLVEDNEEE
Test: holdup assay
Design: key: below the threshold = too weak to quantify, mostly under pKd 3.1 to 4
Details: plain residues with an end cap or a label only (N-terminal biotin on a linker: ado-ado)

Binder | pKd
B1 | below the threshold
B2 | below the threshold
B3 | below the threshold

Target: T5, LIN7C, Q9NUP9
T5 sequence (Q9NUP9 88-185, limits assumed, looked up): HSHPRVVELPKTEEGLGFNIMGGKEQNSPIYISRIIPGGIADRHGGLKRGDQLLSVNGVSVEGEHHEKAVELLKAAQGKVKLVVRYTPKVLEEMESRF
Test: holdup assay
Design: key: below the threshold = too weak to quantify, mostly under pKd 3.1 to 4
Details: plain residues with an end cap or a label only (N-terminal biotin on a linker: ado-ado)

Binder | pKd
B1 | below the threshold
B2 | below the threshold
B3 | below the threshold

Target: T6, LNX2_3, Q8N448
T6 sequence (Q8N448 463-564, limits assumed, looked up): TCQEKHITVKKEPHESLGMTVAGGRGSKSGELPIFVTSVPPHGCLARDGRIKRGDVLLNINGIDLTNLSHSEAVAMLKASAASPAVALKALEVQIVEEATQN
Test: holdup assay
Design: key: below the threshold = too weak to quantify, mostly under pKd 3.1 to 4
Details: plain residues with an end cap or a label only (N-terminal biotin on a linker: ado-ado)

Binder | pKd
B1 | below the threshold
B2 | below the threshold
B3 | below the threshold

Target: MAGI1_2, Q96QZ7
Sequence (Q96QZ7 456-580): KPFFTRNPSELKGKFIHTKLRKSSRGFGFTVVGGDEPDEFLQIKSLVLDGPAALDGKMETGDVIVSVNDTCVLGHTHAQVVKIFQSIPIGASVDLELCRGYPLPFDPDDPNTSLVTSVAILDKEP
Test: holdup assay
Design: key: below the threshold = too weak to quantify, mostly under pKd 3.1 to 4
Details: plain residues with an end cap or a label only (N-terminal biotin on a linker: ado-ado)

Binder | pKd
B1 | below the threshold
B2 | below the threshold
B3 | below the threshold

Target: MAGI2_2, Q86UL8
Sequence (Q86UL8 410-522): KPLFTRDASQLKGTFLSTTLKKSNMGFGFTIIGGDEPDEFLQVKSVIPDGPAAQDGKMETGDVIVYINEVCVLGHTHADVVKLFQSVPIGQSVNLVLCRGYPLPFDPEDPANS
Test: holdup assay
Design: key: below the threshold = too weak to quantify, mostly under pKd 3.1 to 4
Details: plain residues with an end cap or a label only (N-terminal biotin on a linker: ado-ado)

Binder | pKd
B1 | below the threshold
B2 | below the threshold
B3 | below the threshold

Target: MAGI2_4, Q86UL8
Sequence (Q86UL8 772-865): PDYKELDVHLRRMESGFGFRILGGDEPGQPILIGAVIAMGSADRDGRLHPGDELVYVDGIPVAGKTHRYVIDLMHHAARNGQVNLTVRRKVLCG
Test: holdup assay
Design: key: below the threshold = too weak to quantify, mostly under pKd 3.1 to 4
Details: plain residues with an end cap or a label only (N-terminal biotin on a linker: ado-ado)

Binder | pKd
B1 | below the threshold
B2 | below the threshold
B3 | 3.58

Target: MAST1, Q9Y2H9
Sequence (Q9Y2H9 962-1065): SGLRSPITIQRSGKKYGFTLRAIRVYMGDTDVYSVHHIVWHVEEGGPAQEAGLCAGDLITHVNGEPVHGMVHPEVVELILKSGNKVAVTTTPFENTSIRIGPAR
Test: holdup assay
Design: key: below the threshold = too weak to quantify, mostly under pKd 3.1 to 4
Details: plain residues with an end cap or a label only (N-terminal biotin on a linker: ado-ado)

Binder | pKd
B1 | below the threshold
B2 | 4.27
B3 | below the threshold

Target: T7, MPP2, Q14168
T7 sequence (Q14168 180-250, limits assumed, looked up): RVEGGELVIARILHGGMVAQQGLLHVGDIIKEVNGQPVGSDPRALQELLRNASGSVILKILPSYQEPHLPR
Test: holdup assay
Design: key: below the threshold = too weak to quantify, mostly under pKd 3.1 to 4
Details: plain residues with an end cap or a label only (N-terminal biotin on a linker: ado-ado)

Binder | pKd
B1 | below the threshold
B2 | below the threshold
B3 | below the threshold

Target: T8, PARD3B_1, Q8TEW8
T8 sequence (Q8TEW8 196-299, limits assumed, looked up): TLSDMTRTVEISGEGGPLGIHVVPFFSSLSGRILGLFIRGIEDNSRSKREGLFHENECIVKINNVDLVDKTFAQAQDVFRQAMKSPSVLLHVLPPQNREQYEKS
Test: holdup assay
Design: key: below the threshold = too weak to quantify, mostly under pKd 3.1 to 4
Details: plain residues with an end cap or a label only (N-terminal biotin on a linker: ado-ado)

Binder | pKd
B1 | 4.68
B2 | 5.1
B3 | 4.24

Target: T9, RADIL, Q96JH8
T9 sequence (Q96JH8 971-1071, limits assumed, looked up): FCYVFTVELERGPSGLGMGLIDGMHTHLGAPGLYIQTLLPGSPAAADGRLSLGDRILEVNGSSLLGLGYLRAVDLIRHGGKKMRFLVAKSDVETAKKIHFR
Test: holdup assay
Design: key: below the threshold = too weak to quantify, mostly under pKd 3.1 to 4
Details: plain residues with an end cap or a label only (N-terminal biotin on a linker: ado-ado)

Binder | pKd
B1 | 4.19
B2 | below the threshold
B3 | below the threshold

Target: T10, SIPA1L2, Q9P2F8
T10 sequence (Q9P2F8 945-1036, limits assumed, looked up): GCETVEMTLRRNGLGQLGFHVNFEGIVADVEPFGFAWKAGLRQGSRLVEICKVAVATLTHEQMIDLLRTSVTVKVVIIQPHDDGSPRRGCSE
Test: holdup assay
Design: key: below the threshold = too weak to quantify, mostly under pKd 3.1 to 4
Details: plain residues with an end cap or a label only (N-terminal biotin on a linker: ado-ado)

Binder | pKd
B1 | below the threshold
B2 | below the threshold
B3 | below the threshold

Target: T11, SNTG2, Q9NY99
T11 sequence (Q9NY99 68-166, limits assumed, looked up): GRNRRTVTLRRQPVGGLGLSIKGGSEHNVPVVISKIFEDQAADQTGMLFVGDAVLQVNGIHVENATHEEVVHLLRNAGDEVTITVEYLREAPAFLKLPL
Test: holdup assay
Design: key: below the threshold = too weak to quantify, mostly under pKd 3.1 to 4
Details: plain residues with an end cap or a label only (N-terminal biotin on a linker: ado-ado)

Binder | pKd
B1 | 3.62
B2 | below the threshold
B3 | below the threshold

Target: TJP1_2, Q07157
Sequence (Q07157 181-274): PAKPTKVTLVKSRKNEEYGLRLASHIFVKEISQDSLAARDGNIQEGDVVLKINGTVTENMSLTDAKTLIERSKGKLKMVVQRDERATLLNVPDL
Test: holdup assay
Design: key: below the threshold = too weak to quantify, mostly under pKd 3.1 to 4
Details: plain residues with an end cap or a label only (N-terminal biotin on a linker: ado-ado)

Binder | pKd
B1 | below the threshold
B2 | below the threshold
B3 | below the threshold

Target: TJP2_1, Q9UDY2
Sequence (Q9UDY2 24-128): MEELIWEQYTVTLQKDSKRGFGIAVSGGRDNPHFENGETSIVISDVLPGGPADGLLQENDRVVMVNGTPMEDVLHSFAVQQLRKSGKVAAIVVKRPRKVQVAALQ
Test: holdup assay
Design: key: below the threshold = too weak to quantify, mostly under pKd 3.1 to 4
Details: plain residues with an end cap or a label only (N-terminal biotin on a linker: ado-ado)

Binder | pKd
B1 | below the threshold
B2 | 3.56
B3 | below the threshold

Target: T12, TJP3_3, O95049
T12 sequence (O95049 375-456, limits assumed, looked up): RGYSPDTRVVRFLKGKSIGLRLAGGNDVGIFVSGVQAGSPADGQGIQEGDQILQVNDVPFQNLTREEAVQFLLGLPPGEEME
Test: holdup assay
Design: key: below the threshold = too weak to quantify, mostly under pKd 3.1 to 4
Details: plain residues with an end cap or a label only (N-terminal biotin on a linker: ado-ado)

Binder | pKd
B1 | below the threshold
B2 | below the threshold
B3 | below the threshold
